Results taken from article doi:10.1101/2021.12.06.471412 (bioRxiv, 2021).

Assays:
purified human TRAP1 = biological target: T1, purified human TRAP1 (human, UniProt Q12931 60-704); test: far-Western, overlay or dot blot
T1 sequence: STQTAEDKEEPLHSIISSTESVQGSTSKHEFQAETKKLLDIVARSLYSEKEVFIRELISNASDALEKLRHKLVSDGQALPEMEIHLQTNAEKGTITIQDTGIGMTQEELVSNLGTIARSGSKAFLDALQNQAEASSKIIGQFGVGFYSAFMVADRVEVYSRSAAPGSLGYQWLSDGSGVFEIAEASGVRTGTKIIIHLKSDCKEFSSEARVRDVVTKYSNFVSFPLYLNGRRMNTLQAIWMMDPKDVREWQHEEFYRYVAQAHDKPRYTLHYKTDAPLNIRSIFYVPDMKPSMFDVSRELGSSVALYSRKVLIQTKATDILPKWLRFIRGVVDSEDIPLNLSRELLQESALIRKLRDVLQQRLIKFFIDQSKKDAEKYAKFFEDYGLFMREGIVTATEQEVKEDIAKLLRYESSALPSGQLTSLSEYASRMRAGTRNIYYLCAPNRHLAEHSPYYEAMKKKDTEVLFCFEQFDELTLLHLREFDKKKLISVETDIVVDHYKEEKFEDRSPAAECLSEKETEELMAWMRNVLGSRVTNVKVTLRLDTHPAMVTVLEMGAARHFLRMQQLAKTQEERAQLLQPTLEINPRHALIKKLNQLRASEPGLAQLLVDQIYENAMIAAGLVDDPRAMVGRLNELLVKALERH

[1] = biological target: T2, recombinant mature human OSCP (human, UniProt P48047 24-213); test: SPR
T2 sequence: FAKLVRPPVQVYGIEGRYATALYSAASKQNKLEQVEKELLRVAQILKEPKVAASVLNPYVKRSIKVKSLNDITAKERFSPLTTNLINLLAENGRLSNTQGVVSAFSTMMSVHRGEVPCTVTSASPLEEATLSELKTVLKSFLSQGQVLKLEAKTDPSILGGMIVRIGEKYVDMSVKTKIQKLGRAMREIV

B1: F-ATP synthase subunit OSCP (bovine heart) (natural protein)
chain: FAKLVRPPVQIYGIEGRYATALYSAASKQNKLEQVEKELLRVGQILKEPKMAASLLNPYVKRSVKVKSLSDMTAKEKFSPLTSNLINLLAENGRLTNTPAVISAFSTMMSVHRGEVPCTVTTASALDEATLTELKTVLKSFLSKGQVLKLEVKIDPSIMGGMIVRIGEKYVDMSAKTKIQKLSRAMREIL
B1: binds (purified human TRAP1).

B2: F-ATP synthase subunit α (bovine heart) (natural protein)
chain: QKTGTAEVSSILEERILGADTSVDLEETGRVLSIGDGIARVHGLRNVQAEEMVEFSSGLKGMSLNLEPDNVGVVVFGNDKLIKEGDIVKRTGAIVDVPVGEELLGRVVDALGNAIDGKGPIGSKARRRVGLKAPGIIPRISVREPMQTGIKAVDSLVPIGRGQRELIIGDRQTGKTSIAIDTIINQKRFNDGTDEKKKLYCIYVAIGQKRSTVAQLVKRLTDADAMKYTIVVSATASDAAPLQYLAPYSGCSMGEYFRDNGKHALIIYDDLSKQAVAYRQMSLLLRRPPGREAYPGDVFYLHSRLLERAAKMNDAFGGGSLTALPVIETQAGDVSAYIPTNVISITDGQIFLETELFYKGIRPAINVGLSVSRVGSAAQTRAMKQVAGTMKLELAQYREVAAFAQFGSDLDAATQQLLSRGVRLTELLKQGQYSPMAIEEQVAVIYAGVRGYLDKLEPSKITKFENAFLSHVISQHQALLSKIRTDGKISEESDAKLKEIVTNFLAGFEA
B2: binds (purified human TRAP1).

B3: recombinant mature human CyPD (natural protein)
chain: not shown
B3: binds [1].

B4: F-ATP synthase subunit b (bovine heart) (natural protein)
chain: PVPPLPEHGGKVRFGLIPEEFFQFLYPKTGVTGPYVLGTGLILYLLSKEIYVITPETFSAISTIGFLVYIVKKYGASVGEFADKLNEQKIAQLEEVKQASIKQIQDAIDMEKSQQALVQKRHYLFDVQRNNIAMALEVTYRERLHRVYREVKNRLDYHISVQNMMRQKEQEHMINWVEKRVVQSISAQQEKETIAKCIADLKLLSKKAQAQPVM
B4: binds (purified human TRAP1).

B5: F-ATP synthase subunit g (bovine heart) (natural protein)
chain: MAEFVRNLAEKAPALVNAAVTYSKPRLATFWYYAKVELVPPTPAEIPTAIQSLKKIINSAKTGSFKQLTVKEALLNGLVATEVWMWFYVGEIIGKRGIIGYDV
B5: binds (purified human TRAP1).
